A short description of the series: soluble on expression in E. coli; label from the status in PepcDB or PDB records.
In the case of “MDKMFKRTLLGAAVAMASTGAFAASETGAIGVLSDFNVQAYGVAAISAFYQEDSNGYDYENESRIGFRASKDMFDNVNVFMQIESGYVGEDGKGSTLGARDTFLGLQGDWGKVRFGRMLTPLYEIVDWPYSNPGLGRVFDWGGDVAGHYDRKGDIARYDSPAFGGLTFNISAGRGDVGTKSSNHFGAAAHYNAADIVTFHVGYENNSNFKYDYKTKDTAGKDVDNTFLTDATAYIVGFELPLPAGFGLAGAYKYTEGASKTVKGQEGEQGQYSLIGQYWNGPWGFKVGYAANLESEVNGVEQKDDDEVLSAQLMYVKNGFVPYIRVGQHDAYDSADKKGFVRVGLEYGF”, the “soluble on expression in E. coli” value is listed as “not soluble”.
Then “MEEAPFYRDTWVEVDLDAIYNNVTHIKEFIPSDVEIFAVVKGNAYGHDYVPVAKIALEAGATRLAVAFLDEALVLRRAGITAPILVLGPSPPRDINVAAENDVALTVFQKEWVDEAIKLWDGSSTMKYHINFDSGMGRIGIRERKELKGFLKSLEGAPFLELEGVYTHFATADEVETSYFDKQYNTFLEQLSWLKEFGVDPKFVHTANSAATLRFQGITFNAVRIGIAMYGLSPSVEIRPFLPFKLEPALSLHTKVAHIKQVIKGDGISYNVTYRTKTEEWIATVAIGYADGWLRRLQGFEVLVNGKRVPIVGRVTMDQFMIHLPCEVPLGTKVTLIGRQGDEYISATEVAEYSGTINYEIITTISFRVPRIFIRNGKVVEVINYLNDILEENLYFQ”, with “soluble”.
Then “MEVKIEETDWDEGVPGISFLKDAFSREEISPPKDDKNRKKEEVRMKLESGEYSVVYRCPTFDEILNENGQKIDLVQCKNCFGFLSARTGGHMKNHKNQRCKPLNGPPEKKPKLDPQVVGNLQNHILDFVTESGVSLNIAESEKFRIFIISMIITGNPNVNVDEHQFLSGEWIRKTMKEKSCQYLDNIGAELKDPVSKGDACLILDYGRQLDDTFSIFVSYTNRSSGYFSLRVIPLAFTPLFEKKITEKTLDYILHATDRVGLPKEHVLKLKVVAEGATNMLKLGEYFDNCNLFTVCLSFSSKMCRKSFRSTETVEKFDNFIRKITCESDRKRNRNLWNDFLQTPALQSLINIYVLSLILLCFQLTEQLSRTPAQSRANEWLASYHCARDILHVFPQIADLKDDRIEPLVDELRQCKGVLEDCFEIFSLFENPLKLLEQPEQQIQNVAGCLAAVAKMAKLSIAHYTKITVTDVHLICAFLSPDSKNLKNFPAPKKNKAYRIVNTLMKDVVVPPPSLSQPILSPLLMAIKNDPSPIPTVSQEFNDYVQLVVSSKDATLAPLEFWAKYQERFPRMSEIAAKNFCVMSSPGVCGPSFIVLRSLFRVDRHSKFPDTTELMMISYLMANELK”, with “not soluble”.
Consider “MRAADAPDAPLPEDRRNAPVWFAHDLEAPRCTALFPRLADRRPALVVVGGFLGSGKTTFLNNCIEYHRARERFVAVIQNEVGATGVDARLMGDGAEVLALDEGCVCCSLAGSLAGGIRAITADFTPEVILLETTGLANPLNLLAELDTLRDMVRLDAVVTVVDAANIVPTLRDSDIARDQIRGADIIVCNKCDTVDETGRAALRATLTGLNGRAALHETSFGRIHPSLFMALEGERPPRGLMPAPHGTHATHADEGFAAVRLFFSGTIDEAALAPLLQQCPGAPFRIKGIVRVTDDEAPRLVQCVGARCEVERLDGGFEGTPFLVFIGRNPDETALLEHWAALGATAEPPAPQAEADTQPAQATKSASGGQSSDATRGCHDHHLEHHHHHH”, for which the “soluble on expression in E. coli” value was “not soluble”.
With “MSHSVPNALMTGADYLDSLRDGRQVYLNGERVADVTRHRAFRNACRSIAGLYDGLHGEQRDVLTRVDAQGRRSHRFFTPAQNAEDLLGAREAIGCWSRMTYGFMGRTPDYKAAFMSGLEAGAGFYGDYRHNACAWHRAFADRGLFLNHAIINPPLDRSKAIHEMRDVFVHVERETDQGIVVSGAKMLATGSAITNATFVAPVASAQMEAGKAEDFAVVFFARMDNPGLRLMCRPSYEERASSPFDYPLSSRFDENDSVLLFDKALIPWEDVLVYRDLRRATGFYAESGFANLYNFQSGIRLGVKLELMIGLLSLGVRANGTQSFRGIQAALGELIALQHLLQALTTAMARDPERNAAGSAVPRLEYANALRIQVPQIWKRVRELLESALGGAPLVTVSGAADLRDGEARRLVDSYYRGAELEPEQRLKLFKLIWDATGSEFGARHAVYESHYSGNAEQIRLDSLAWASRRGHLAYCEAMVQRCMADYDIHGWLRGPWQHD”, the “soluble on expression in E. coli” value is on record as “not soluble”.
Turning to “MGSDKIHHHHHHMNYKPEIAIIESNTLTCLGLKSILEEIIPMATIRTFHSFSELMDDTPDMYAHYFISAQIYVEHNAFFLPRKRKTIVLASDSPQFQLSGVPVLNIYEPEEKLVKSLLKLHQHAHHNGYPVKDMPPIAMPEVHQEILSAREIEVLVLITKGLINKEIADKLNISLTTVITHRKNITEKLGIKSVSGLTIYAVMNGYIEADRI”, the “soluble on expression in E. coli” value is reported as “not soluble”.
As for “MSEAWITLATNDNYAQGALVLVHSLRTAGTTRKIHCLISNEVSAPVRKQLEEHFDDVSIVDVFNSNDSDNLRLIERPDLGVTFTKLHCWRLTQYTKCVFLDADTLVLRNADELFTRPDFSAASDIGWPDSFNSGVFVYVPNNETYRQLVDFAVTHGSYDGGDQGLLNDFFSNWRDLPSEHRLPFIYNMTAGAFYTYAAAYKRYGANTKIVHFIGSVKPWHGSAAVHTGEHFQQWQKIYHAHVNHTSRTNEHAAVFPSHHHTPEHRSHSADHPKIERKDSIVREIGNFVMHVVQSVNILPSYDTDANTSDSHRNNEPHKHDQQREEHHELPHNKFQTPHEESQDIVGSTDCFGSQMPKYNADSETDREVEQITNNTPCPAFVPFERREEYQAASPSTEERRAAWEAGQPDYLGRDAFVHIQEALNRALNE”, the “soluble on expression in E. coli” value is given as “not soluble”.
Then “MAHHHHHHMPSVATASTRAVLAYPTDDAKLLVELTPTDRVAGGGSCGGFSGGGPMTQSDLGVGGSRMLQSLLVTRNVRDHLLDLRFSEAALSAQVTLQGDTVRDLIADITAAQSTEVSIRIDPKVGVILRGEGGPYGEVEAHVHATSEALLSLSREQSASTRVYTHHLALACGARGGTGGGGSSGSSAGAGGTGGGRLRGTGASVRDGRLSNADYILMGLAASAAGAGSSGGGGGAAVGTLFGGFERLTLQINAQRQLSVLHTQRDHELKVFVTVVVMPLSSVCDML”, with “not soluble”.
Then “MGSDKIHHHHHHMPDLFVTNFNRNFTGVSATAANVIRQQVATHDLALVGHALPGCPAPISARAARALSRTPPPGKPFAIWHVRRNPEMQTAIWARDVLRLPIRIVFTSAAIRRHSAFPRWLISRMDAVVATSDAAASFVPHVRAVVPHGVDTDRFTPAPDRPAAWAAQGYGGSFGIATIGRVRPEKGTDLFVEAMLRLLPDMPGAVALVVGRATKEHQKFALTLKDKVQRAGMIDRIRFIDEVPPDRLPDLMRALSLVVQLPRYEGYGMVPLEAMASGVPFVGSDTGFFREFSAQGRAGRVVPLENAGLGAEAARALLADEDVHGAAALAAREIAVESFSAAREAAGIEAVYQQLWSQAAPGA”, with “not soluble”; and “MGSSHHHHHHGSLSKQIPLGIYEKALPAGECWLERLQLAKTLGFDFVEMSVDETDERLSRLDWSREQRLALVNAIVETGVRVPSMCLSAHRRFPLGSEDDAVRAQGLEIMRKAIQFAQDVGIRVIQLAGYDVYYQEANNETRRRFRDGLKESVEMASRAQVTLAMEIMDYPLMNSISKALGYAHYLNNPWFQLYPDIGNLSAWDNDVQMELQAGIGHIVAVHVKDTKPGVFKNVPFGEGVVDFERCFETLKQSGYCGPYLIEMWSETAEDPAAEVAKARDWVKARMAKAGMVEAA”, with “soluble”; and “MNALARRAAGLLLGTLCLPLAAFAADVQPTHEFILDNGLKVVVREDHRAPVVVSQIWYKVGSSYETPGQTGLSHALEHMMFKGSAKVGPGEASRILRDLGADENAFTSDDYTAYYQVLARDRLPVALELEADRLASLRLPADEFSREIEVIKEERRLRTDDQPNAKAFELFRAMAYPASGYHTPTIGWMADLERMKVEELRHWYESWYAPNNATLVVVGDVTADEVKGLAQKYFGNIPKRA”, with “not soluble”.
Then “GAMGSDFLLGNPFSSPVGQRIEKATDGSLQSEDWALNMEICDIINETEEGPKDALRAVKKRIVGNKNFHEVMLALTVLETCVKNCGHRFHVLVASQDFVESVLVRTILPKNNPPTIVHDKVLNLIQSWADAFRSSPDLTGVVTIYEDLRRKGLEFPM”, with “soluble”.
